Test results reported in US20220249685A1 (SILVERBACK THERAPEUTICS, published 2022).
Numbering of substitutions follows the chain as printed. Names and notes keep the numbering of the source.

B1: Antibody 55 (VH1-e G27Y, G55A, R66K, V67A, A71V / VKIII-L6) (antibody, V domains shown)
VH: QVQLVQSGAEVKKPGSSVKVSCKASGYTFSGYTMNWVRQAPGQGLEWMGLITPYNAASSYNQKFRGKATITVDKSTSTAYMELSSLRSEDTAVYYCARGGYDGRGFDYWGQGTTVTVSS
VL: EIVLTQSPATLSLSPGERATLSCSASSSVSYMHWYQQKPGQAPRLLIYDTSKLASGIPARFSGSGSGTDFTLTISSLEPEDFAVYYCQQWSKHPLTFGGGTKVEIK
B2: 55-IgG1-TLR8 conjugate (antibody, V domains shown)
VH: B1 VH
VL: B1 VL
modifications: cysteines freed by TCEP reduction may carry the drug-linker; positions not given; cysteines freed by TCEP reduction carry the TLR8 agonist drug-linker; positions not given
notes: also called 55-TLR8
B3: Antibody 56 (VH1-e CDRgraft G55A / VKI-L12) (antibody, V domains shown)
VH: B1 VH with Y27G, K67R, A68V, V72A
VL: DIQMTQSPSTLSASVGDRVTITCSASSSVSYMHWYQQKPGKAPKLLIYDTSKLASGVPSRFSGSGSGTEFTLTISSLQPDDFATYYCQQWSKHPLTFGGGTKVEIK
B4: 56-IgG1-TLR8 conjugate (antibody, V domains shown)
VH: B1 VH with Y27G, K67R, A68V, V72A
VL: B3 VL
modifications: cysteines freed by TCEP reduction may carry the drug-linker; positions not given; cysteines freed by TCEP reduction carry the TLR8 agonist drug-linker; positions not given
notes: also called 56-TLR8

Target: T1, human MSLN expressed on tumor cell lines (OVCAR3, NCI-N87) or on transfected HEK-293 cells (human, UniProt Q13421 296-598)
T1 construct: whole, on cells; also called human mesothelin
Assay: flow cytometry on NCI-N87 cells, anti-huIgG1-PE, MFI (Geo Mean)

T1 sequence (Q13421 other isoform, or with tags, fused parts or gaps limits assumed): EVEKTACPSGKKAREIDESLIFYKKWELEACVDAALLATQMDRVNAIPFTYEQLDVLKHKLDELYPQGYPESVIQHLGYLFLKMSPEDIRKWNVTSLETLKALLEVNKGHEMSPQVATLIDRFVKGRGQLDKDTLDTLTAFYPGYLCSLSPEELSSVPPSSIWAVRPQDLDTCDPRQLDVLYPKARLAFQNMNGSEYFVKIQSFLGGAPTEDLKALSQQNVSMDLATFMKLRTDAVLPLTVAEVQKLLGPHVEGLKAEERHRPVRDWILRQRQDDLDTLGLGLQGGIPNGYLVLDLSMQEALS

Row | Binder | EC50 (read off the curve) [pM]
1 | B1 | ~100
2 | B2 | ~200
3 | B3 | ~200
4 | B4 | ~300

Target: T2, cynomolgus MSLN on transfected 293 cells (cynomolgus)
T2 construct: whole, on cells; also called cyno MSLN; cynomolgus mesothelin
Assay: flow cytometry on 293 cells transiently transfected with cyno MSLN, anti-huIgG1-PE, MFI (Geo Mean)

Row | Binder | EC50 (read off the curve) [pM]
5 | B1 | ~80
6 | B2 | ~100
7 | B3 | ~100
8 | B4 | ~200
